{
  "source": "paper PMC3081413",
  "key": {"[1]": {"target": "WT IKKβ (hIKKβ, parent of the purified dimerization mutants of Figure 5c) (human) (UniProt O14920)", "experiment": "AUC"}, "[2]": {"target": "hIKKβ KD-ULD-SDD region (1–678) (human) (UniProt O14920)", "experiment": "SEC"}, "GST-IκBα (1–317)": {"target": "GST-IκBα (1–317) (UniProt P25963)", "sequence (P25963 whole entry)": "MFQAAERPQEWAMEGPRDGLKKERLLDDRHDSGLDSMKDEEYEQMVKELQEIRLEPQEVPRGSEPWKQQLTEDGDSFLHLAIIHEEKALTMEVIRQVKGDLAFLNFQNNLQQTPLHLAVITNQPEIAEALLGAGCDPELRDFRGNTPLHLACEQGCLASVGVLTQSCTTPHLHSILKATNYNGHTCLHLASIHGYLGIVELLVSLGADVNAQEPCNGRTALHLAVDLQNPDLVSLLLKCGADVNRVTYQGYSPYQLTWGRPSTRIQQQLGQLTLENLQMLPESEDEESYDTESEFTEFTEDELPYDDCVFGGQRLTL"}, "[3]": {"target": "Full-length hIKKβ (1–756) (human) (UniProt O14920)", "experiment": "SEC"}, "[4]": {"target": "hIKKβ W655D/L658D, purified (human) (UniProt O14920)", "experiment": "AUC"}},
  "data": [
    {"substance": "WT IKKβ (hIKKβ, parent of the purified dimerization mutants of Figure 5c) (from UniProt O14920 1-756) (enzyme)", "values": [
      {"measurement": "stoichiometry N", "setting": "[1]", "result": 2}
    ]},
    {"substance": "hIKKβ KD-ULD-SDD region (1–678) (from UniProt O14920 1-678) (domain or fragment)", "values": [
      {"measurement": "stoichiometry N", "setting": "[2]", "result": 2}
    ]},
    {"substance": "Full-length hIKKβ (1–756) (from UniProt O14920 1-756) (enzyme)", "values": [
      {"measurement": "relative Vmax of phosphorylation of full-length IκBα by IKKβ EE", "setting": "GST-IκBα (1–317)", "result": 502, "unit": "a.u."},
      {"measurement": "stoichiometry N", "setting": "[3]", "result": 2}
    ]},
    {"substance": "hIKKβ W655D/L658D, purified (from UniProt O14920 1-756) (enzyme)", "values": [
      {"measurement": "fold weaker dimerization affinity than WT", "setting": "[4]", "result": 167, "unit": "fold"}
    ]}
  ]
}
